Assay [1] has as its target T1, human C4.4a on transfected A549:hC4.4a cells (human, UniProt O95274 31-326).
T1 sequence: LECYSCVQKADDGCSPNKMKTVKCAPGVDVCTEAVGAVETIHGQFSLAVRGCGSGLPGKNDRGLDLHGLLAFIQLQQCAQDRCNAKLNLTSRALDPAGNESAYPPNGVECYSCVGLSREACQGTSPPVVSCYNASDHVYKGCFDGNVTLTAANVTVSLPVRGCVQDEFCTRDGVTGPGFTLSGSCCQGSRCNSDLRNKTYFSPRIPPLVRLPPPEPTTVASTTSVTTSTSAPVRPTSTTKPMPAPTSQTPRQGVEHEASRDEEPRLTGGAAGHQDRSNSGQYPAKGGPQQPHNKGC
Briefly: cell-based or functional assay.

The target in assay [2] is T2, human C4.4a natively expressed on tumor cell lines (human, UniProt O95274 31-326).
T2 construct: whole, on cells; also called NCI H292; NCI H322
T2 sequence (looked up): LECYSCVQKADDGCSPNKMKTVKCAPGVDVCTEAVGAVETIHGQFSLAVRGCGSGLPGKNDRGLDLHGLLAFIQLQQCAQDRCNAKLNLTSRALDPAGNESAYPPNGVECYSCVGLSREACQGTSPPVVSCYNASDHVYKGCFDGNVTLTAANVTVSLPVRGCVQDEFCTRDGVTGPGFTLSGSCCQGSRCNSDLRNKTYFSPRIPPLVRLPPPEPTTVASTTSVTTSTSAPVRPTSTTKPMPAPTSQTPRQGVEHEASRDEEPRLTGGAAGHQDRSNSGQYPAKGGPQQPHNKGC
The experiment in a line: FACS titration of IgG1 on NCI H292 cells. The procedure: FACS titration was performed in a 96 well microtiter plate, in which serial dilutions of the primary antibody in a volume of 50 W of FACS buffer (3% FCS, in PBS) were mixed with 50 μl of a cell suspension consisting of 2×10^5 cells/ml which had been detached with Cell Dissociation Solution (1×) Non-enzymatic (Sigma), and resuspended in FACS buffer. Incubation was performed at 4° C. for 1 hour with agitation. Cells were pelleted, washed with FACS buffer and resuspended in 100 μl/well of Phycoerythrin labeled goat anti human IgG (Dianova) solution in FACS buffer. Incubation and washing was performed as before. Analysis of cell-bound antibodies was done at the respective detection wavelength using the FACS Array device. EC₅₀ values were determined from fluorescence medians of duplicates using Swift 8.0 software.

Assay [3] has as its target T3, murine C4.4a on transfected CHO-S:mC4.4a cells (mouse, UniProt Q91YK8 33-343).
T3 construct: full length GPI-anchored form, stably transfected; also called Mouse C4.4a:CHO; mC4.4a: CHO
T3 sequence: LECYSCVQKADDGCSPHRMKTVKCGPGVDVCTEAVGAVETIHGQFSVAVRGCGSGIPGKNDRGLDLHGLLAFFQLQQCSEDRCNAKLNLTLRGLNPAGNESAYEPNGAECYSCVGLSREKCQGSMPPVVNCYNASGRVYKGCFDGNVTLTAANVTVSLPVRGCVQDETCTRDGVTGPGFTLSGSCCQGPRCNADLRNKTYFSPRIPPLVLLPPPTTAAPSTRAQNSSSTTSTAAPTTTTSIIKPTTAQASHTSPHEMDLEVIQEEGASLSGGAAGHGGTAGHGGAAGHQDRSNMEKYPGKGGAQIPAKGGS
Briefly: FACS titration of IgG1 on CHO-S:mC4.4a cells.

Assay [4] addresses T4, recombinant soluble human C4.4a (human, UniProt O95274 31-308).
T4 construct: recombinant, soluble, purified protein; also called hC4.4a; full length C4.4a
T4 sequence: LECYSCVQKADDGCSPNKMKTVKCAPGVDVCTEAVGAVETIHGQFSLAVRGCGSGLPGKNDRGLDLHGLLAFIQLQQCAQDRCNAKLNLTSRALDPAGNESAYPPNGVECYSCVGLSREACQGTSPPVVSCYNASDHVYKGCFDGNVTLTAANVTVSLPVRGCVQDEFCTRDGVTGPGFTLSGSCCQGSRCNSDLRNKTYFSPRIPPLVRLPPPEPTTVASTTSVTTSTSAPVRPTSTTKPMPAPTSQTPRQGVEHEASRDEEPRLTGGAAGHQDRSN
The experiment in a line: SPR (Biacore T100), IgG1 captured by anti-human Fc, soluble C4.4a injected, 1:1 fit. How it is done: (§1) Binding affinities of anti C4.4 antibodies were determined by surface plasmon resonance analysis on a Biacore T100 instrument (GE Healthcare Biacore, Inc.). Antibodies were immobilized onto a CM5 sensor chip through an indirect capturing reagent, anti-human IgG Fc. Reagents from the “Human Antibody Capture Kit” (BR-1008-39, GE Healthcare Biacore, Inc.) were used as described by the manufacturer. Approximately 5000 RU monoclonal mouse anti-human IgG (Fc) antibody were immobilized per cell. Anti C4.4 antibodies were injected at a concentration of 5 μg/ml at 10 μl/min for 10 sec to reach a capturing level of approximately 200 to 600 RU. Various concentrations (400 nM, 200 nM, 100 nM, 50 nM, 25 nM, 12.5 nM, 6.25 nM, and 3.12 nM) in HEPES-EP buffer (GE Healthcare Biacore, Inc.) of human or murine C4.4a were injected over immobilized anti C4.4a antibodies at a flow rate of 60 μl/min for 3 minutes and the dissociation was allowed for 10 minutes. Sensograms were generated after in-line reference cell correction followed by buffer sample subtraction. The dissociation equilibrium constant (KD) was calculated based on the ratio of association (kₒₙ) and dissociation rated (koff) constants, obtained by fitting sensograms with a first order 1:1 binding model using Biavaluation Software (version 4.0).
(In general: Surface plasmon resonance follows binding to a sensor surface in real time, without labels.)

The target of assay [5] is T5, recombinant soluble murine C4.4a (mouse, UniProt Q91YK8 33-343, limits assumed).
T5 construct: also called mouse C4.4a; mC4.4a
T5 sequence (looked up): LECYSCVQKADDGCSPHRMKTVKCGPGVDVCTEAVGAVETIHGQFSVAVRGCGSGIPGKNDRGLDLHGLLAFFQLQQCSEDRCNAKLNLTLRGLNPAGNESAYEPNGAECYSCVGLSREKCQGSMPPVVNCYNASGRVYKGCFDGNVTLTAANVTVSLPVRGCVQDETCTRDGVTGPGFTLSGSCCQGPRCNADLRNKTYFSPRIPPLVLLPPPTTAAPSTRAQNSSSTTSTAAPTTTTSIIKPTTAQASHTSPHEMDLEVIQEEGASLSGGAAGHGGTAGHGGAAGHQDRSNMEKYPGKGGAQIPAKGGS
Described as above. The procedure:
as §1

Broadly, the EC50 is the midpoint of the concentration-response curve. Read a low EC50 as a more potent agent. Usually Kd stands for the concentration at which binding is half-saturated.

B1: B01-10 (antibody, human IgG1, V domains shown)
VH: EVQLLESGGGLVQPGGSLRLSCAASGFTFSSAWMSWVRQAPGKGLEWVSYISSSGSTIYYADSVKGRFTISRDNSKNTLYLQMNSLRAEDTAVYYCAREGLWAFDYWGQGTLVTVSS
VL: QSVLTQPPSVSGAPGQRVTISCTGSSSNIGAGYVVHWYQQLPGTAPKLLIYDNNKRPSGVPDRFSGSKSGTSASLAISGLRSEDEADYYCAAYDDSLSGPVFGGGTKLTVLG
notes: tested as human IgG1
For B1, the “internalization t½ [min] into A549:hC4.4a cells (CypHer 5E labeled antibody)” value in assay [1] is 30 min. Moreover, the EC50 in assay [2] is 0.1 nM; in assay [3], 0.43 nM. In addition, the values for the dissociation constant Kd in assay [4] and in assay [5] were 4 nM and 1 nM, respectively.

B2: D02-7 (antibody, human IgG1, V domains shown)
VH: EVQLLESGGGLVQPGGSLRLSCAASGFTFSDYQMTWIRQTPGKGLEWVSGISWNGGSTHYADSVKGRFTISRDNSKNTLYLQMNSLRAEDTAVYYCAKGDYLVYKSYYFKSWGQGTLVTVSS
VL: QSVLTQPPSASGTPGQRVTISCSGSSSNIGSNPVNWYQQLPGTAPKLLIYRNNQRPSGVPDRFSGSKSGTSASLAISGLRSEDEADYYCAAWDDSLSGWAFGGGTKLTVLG
notes: tested as human IgG1; also called D02-07
In the case of B2, in assay [1], the “internalization t½ [min] into A549:hC4.4a cells (CypHer 5E labeled antibody)” value was 33 min. Also, the values for the EC50 in assay [2] and in assay [3] were 0.03 nM and 0.78 nM, respectively. Moreover, the Kd in assay [4] was 9 nM; in assay [5], 22 nM.

(Values after patent US20120321619A1 (Bayer, published 2012).)
